Reference: publication PMC2928812

Tested on: FMDV 3D polymerase wild type (Foot-and-mouth disease virus C-S8c1?)
Test: EMSA

heteropolymeric RNA template-primer of the RNA binding assay
binding signal (% RNA retarded): 62
